What follows are sequences tested against SARS-CoV-2 spike protein, Omicron BA.2 (on SmBiT-BA.2 pseudovirus) (SARS-CoV-2 Omicron BA.2) (UniProt P0DTC2).
Sequence “CGCAGCACCCAAGAACAAGGACTGCTTAGGATTGCGATAGGTTCGG [46-mer aptamer]” has an IC50 of 0.7 µM.
“ATCCAGAGTGACGCAGCATTTCATCGGGTCCAAAAGGGGCTGCTCGGGATTGCGGATATGGACACGT [67-mer aptamer]” was tested, and the IC50 was 1.64 µM.
For “ATCCAGAGTGACGCAGCATCGAGTGGCTTGTTTGTAATGTAGGGTTCCGGTCGTGGGTTGGACACGGTGGCTTAGT [76-mer aptamer]”, the IC50 was 3.61 µM.
